System: LNCaP tumor xenograft
Assay: Biodistribution of 225Ac/221Fr/213Bi in LNCaP tumor bearing mice
Conditions: for A2(o)/A2(eq) Bi-213 at sacrifice time / A2(o)/A2(eq) Fr-221 at sacrifice time / % ID/g Ac-225 / % ID/g Bi-213 / % ID/g Fr-221: 48 hour, mean; for A2(o)/A2(eq) Bi-213 at sacrifice time / A2(o)/A2(eq) Fr-221 at sacrifice time: daughter/parent ratio
Procedure: An [225Ac]DOTA-J591 biodistribution experiment was carried-out using a male athymic nude (8-12 weeks old) mouse (Taconic, Germantown, N.Y.) model with an i.m. xenograft of 5E6 LNCaP tumor cells in Matrigel (Becton Dickinson Labware, Bedford Mass.) implanted in the right hind leg. The tumors were allowed to grow for 4 weeks and then the mice were separated into two groups (n=12 per group). One group received approximately 0.55 mL of [225Ac]DOTA-J591 (350 nCi ^225Ac on 0.0035 mg J591) and the other group received the irrelevant control [225Ac]DOTA-HuM195 (350 nCi 225Ac on 0.0026 mg HuM195) via i.p. injection. Three to four animals from each group were sacrificed at 48 h and 72 h post injection. Blood and tissue samples including: heart, kidneys, lung, spleen, liver, stomach, intestine, and tumor were harvested, weighed and counted using a Packard Cobra Gamma Counter (Packard Instrument Co., Inc., Meriden, Conn.) with two energy windows, ^221Fr (185-250 KeV window) and ^213Bi (360-480 window). The percent of the injected dose per gram of tissue (% ID/g) was determined by measuring the activity in […] aliquots of each respective [^225Ac]mAb injectate in triplicate. After the initial 48 h time point data was analyzed, attention was focused on collection of blood, tumor, heart, kidney and small intestine samples as the need to rapidly sacrifice, harvest, and count was necessary in order to measure ^221Fr in the samples.
Using known methods (28), values of A2(o)/A2(eq) were determined for each tissue sample.

**Q.** For 225Ac-HuM195-DOTA, which “225Ac uptake in the liver” value (48 h, LNCaP tumor bearing mice, i.p.) is on record?
**A.** The value was “less than 8%”.

**Q.** And the “A2(o)/A2(eq) Bi-213 at sacrifice time” value (Blood)?
**A.** The value was 0.04.

**Q.** What about the “A2(o)/A2(eq) Fr-221 at sacrifice time” value (Blood) of the same substance?
**A.** Its value is 0.13.

**Q.** And the “% ID/g Ac-225” value (Blood)?
**A.** The value was 13.5 % ID/g.

**Q.** What about the “% ID/g Bi-213” value (Blood) of the same substance?
**A.** The value was 0.55 % ID/g.

**Q.** And the “% ID/g Fr-221” value (Blood)?
**A.** The value was 0.18 % ID/g.

**Q.** And the “A2(o)/A2(eq) Bi-213 at sacrifice time” value (Heart)?
**A.** The value was 0.99.

**Q.** What about the “A2(o)/A2(eq) Fr-221 at sacrifice time” value (Heart) of the same substance?
**A.** The value was 1.6.

**Q.** What about the “% ID/g Ac-225” value (Heart) of the same substance?
**A.** The value was 3.9 % ID/g.

**Q.** What about the “% ID/g Bi-213” value (Heart) of the same substance?
**A.** Its value is 3.9 % ID/g.

**Q.** What about the “% ID/g Fr-221” value (Heart) of the same substance?
**A.** The value was 6.1 % ID/g.

**Q.** And the “A2(o)/A2(eq) Bi-213 at sacrifice time” value (Kidneys)?
**A.** Its value is 10.0.

**Q.** And the “A2(o)/A2(eq) Fr-221 at sacrifice time” value (Kidneys)?
**A.** The value was 16.8.

**Q.** What about the “% ID/g Ac-225” value (Kidneys) of the same substance?
**A.** The value was 4.7 % ID/g.

**Q.** What about the “% ID/g Bi-213” value (Kidneys) of the same substance?
**A.** The value was 46.5 % ID/g.

**Q.** And the “% ID/g Fr-221” value (Kidneys)?
**A.** Its value is 72.8 % ID/g.

**Q.** And the “A2(o)/A2(eq) Bi-213 at sacrifice time” value (Liver)?
**A.** Its value is 0.87.

**Q.** And the “A2(o)/A2(eq) Fr-221 at sacrifice time” value (Liver)?
**A.** Its value is 0.70.

**Q.** And the “% ID/g Ac-225” value (Liver)?
**A.** The value was 7.7 % ID/g.

**Q.** And the “% ID/g Bi-213” value (Liver)?
**A.** Its value is 6.5 % ID/g.

**Q.** And the “% ID/g Fr-221” value (Liver)?
**A.** The value was 5.5 % ID/g.

**Q.** And the “A2(o)/A2(eq) Bi-213 at sacrifice time” value (Sm. Int.)?
**A.** Its value is 4.0.

**Q.** And the “A2(o)/A2(eq) Fr-221 at sacrifice time” value (Sm. Int.)?
**A.** The value was 13.3.

**Q.** What about the “% ID/g Ac-225” value (Sm. Int.) of the same substance?
**A.** Its value is 1.6 % ID/g.

**Q.** What about the “% ID/g Bi-213” value (Sm. Int.) of the same substance?
**A.** Its value is 6.3 % ID/g.

**Q.** And the “% ID/g Fr-221” value (Sm. Int.)?
**A.** The value was 18.7 % ID/g.

**Q.** What about the “A2(o)/A2(eq) Bi-213 at sacrifice time” value (Tumor) of the same substance?
**A.** Its value is 0.87.

**Q.** And the “A2(o)/A2(eq) Fr-221 at sacrifice time” value (Tumor)?
**A.** Its value is 0.83.

**Q.** And the “% ID/g Ac-225” value (Tumor)?
**A.** The value was 1.60 % ID/g.

**Q.** And the “% ID/g Bi-213” value (Tumor)?
**A.** Its value is 5.0 % ID/g.

**Q.** And the “% ID/g Fr-221” value (Tumor)?
**A.** The value was 4.6 % ID/g.
